Measured values from patent US12565506B2, “Nitrogen-containing macrocyclic conjugates as radiopharmaceuticals” (Clarity Pharmaceuticals Ltd., priority 2008, dated 2026).

Experiment: Serum stability of 64Cu-labelled Sar-peptides by radio-HPLC
Format: in vitro ADME
Conditions: human male AB serum, 37° C.
Protocol: Human male AB serum (200 μL) was added to a solution of [^64CuL^1-Tyr^3-octreotate]^2+ (200 μL). This solution was incubated in a water bath at 37° C. At time points of 1 hr, 4 hr and 20 hr an aliquot of this serum solution (100 μL) was removed for radio-HPLC analysis: acetonitrile (200 μL) was added to the serum aliquot to precipitate serum proteins. This mixture was filtered and the acetonitrile evaporated under a stream of argon gas. The final volume was <100 μL. The solution was frozen at −70° C. until injection onto the HPLC column. 1 hr: Retention time 12.716 min, >95% radiochemical yield; 4 hr: Retention time 12.725 min, >95% radiochemical yield; 20 hr: Retention time 12.800 min, >95% radiochemical yield.
A single time point serum stability study for [^64CuL^1-Lys3-bombesin]^2+ was conducted in the same way as studies for [^64CuL^1-Tyr^3-octreotate]^2+. An aliquot of [^64CuL^1-Lys3-bombesin]^2+ (200 μL) was added to human male AB serum and incubated at 37° C. After 2 hr, the sample was subjected to the same treatment as described above and injected onto the HPLC column. 2 hr: Retention time 12.828 min, >95% radiochemical yield.

SMILES | radiochemical yield (intact complex by radio-HPLC) after incubation in serum (2 hr) [%] | radiochemical yield (intact complex by radio-HPLC) after incubation in serum (1 hr) [%] | radiochemical yield (intact complex by radio-HPLC) after incubation in serum (4 hr) [%] | radiochemical yield (intact complex by radio-HPLC) after incubation in serum (20 hr) [%]
CSCC[C@H](NC(=O)[C@H](CC(C)C)NC(=O)[C@H](Cc1c[nH]cn1)NC(=O)CNC(=O)[C@@H](NC(=O)[C@H](C)NC(=O)[C@H](Cc1c[nH]c2ccccc12)NC(=O)[C@H](CCC(N)=O)NC(=O)[C@H](CC(N)=O)NC(=O)CNC(=O)[C@H](CC(C)C)NC(=O)[C@H](CCCCNC(=O)CCCC(=O)NC12CNCCNCC(N)(CNCCNC1)CNCCNC2)NC(=O)[C@H](CCC(N)=O)NC(=O)[C@@H]1CCC(=O)N1)C(C)C)C(N)=O (64Cu complex, metal not drawn) [[^64CuL^1-Lys3-bombesin]^2+] | > 95 |  |  | 
CC(O)[C@H](NC(=O)C1CSSC[C@H](NC(=O)[C@@H](Cc2ccccc2)NC(=O)CCCC(=O)N[C@]23CNCCNC[C@]4(N)C[N]5CC[N](C2)[Cu]52([CH3])([CH3])[N](CC[N]2C3)C4)C(=O)N[C@@H](Cc2ccc(O)cc2)C(=O)N[C@H](Cc2c[nH]c3ccccc23)C(=O)N[C@@H](CCCCN)C(=O)N[C@@H](C(C)O)C(=O)N1)C(=O)O (stereo partly shown) [[^64CuL^1-Tyr^3-octreotate]^2+] |  | > 95 | > 95 | > 95
